# Measurements taken from PMC9482650, “Quantitative fragmentomics allow affinity mapping of interactomes” (Nature Communications, 2022).
# Where a chain is given by its changes, count along the chain named.
# T1: DVL3, Q92997
# T1 sequence (Q92997 244-331, limits assumed, looked up): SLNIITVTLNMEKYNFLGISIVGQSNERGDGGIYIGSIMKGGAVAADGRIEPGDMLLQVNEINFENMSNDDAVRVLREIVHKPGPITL
# T2: DLG3_1, Q92796
# T2 sequence (Q92796 125-227, limits assumed, looked up): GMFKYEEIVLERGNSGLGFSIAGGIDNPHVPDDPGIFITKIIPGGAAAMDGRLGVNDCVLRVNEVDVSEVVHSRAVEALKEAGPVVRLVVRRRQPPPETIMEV
# T3: DLG3_2, Q92796
# T3 sequence (Q92796 221-321, limits assumed, looked up): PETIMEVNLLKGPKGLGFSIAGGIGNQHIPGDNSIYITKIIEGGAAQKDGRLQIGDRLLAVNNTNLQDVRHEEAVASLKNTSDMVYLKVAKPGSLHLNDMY
# T4: GRIP1_2, Q9Y3R0
# T4 sequence (Q9Y3R0 145-248, limits assumed, looked up): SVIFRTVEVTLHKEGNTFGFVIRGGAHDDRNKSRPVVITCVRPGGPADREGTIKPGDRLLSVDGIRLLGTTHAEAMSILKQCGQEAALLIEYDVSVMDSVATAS
# T5: LIN7B, Q9HAP6
# T5 sequence (Q9HAP6 88-185, limits assumed, looked up): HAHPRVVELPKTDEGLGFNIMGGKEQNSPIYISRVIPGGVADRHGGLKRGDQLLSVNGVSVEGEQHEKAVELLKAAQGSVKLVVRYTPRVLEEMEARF
# T6: FRMPD1, Q5SYB0
# T6 sequence (Q5SYB0 52-145, limits assumed, looked up): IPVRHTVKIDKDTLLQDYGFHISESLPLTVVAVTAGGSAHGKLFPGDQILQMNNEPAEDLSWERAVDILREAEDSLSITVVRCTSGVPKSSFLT
# T7: APBA2_1, Q99767
# T7 sequence (Q99767 563-664, limits assumed, looked up): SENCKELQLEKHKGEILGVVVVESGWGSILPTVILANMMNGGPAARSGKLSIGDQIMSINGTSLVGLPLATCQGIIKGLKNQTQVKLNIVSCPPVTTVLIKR
# T8: LIN7A, O14910
# T8 sequence (O14910 103-200, limits assumed, looked up): T5 sequence (Q9HAP6 88-185, limits assumed, looked up) with A2S, I20V, V35I, D42E, Q65H, Q77K, G78D, R89K
# T9: PCLO, Q9Y6V0
# T9 sequence (Q9Y6V0 4491-4600, limits assumed, looked up): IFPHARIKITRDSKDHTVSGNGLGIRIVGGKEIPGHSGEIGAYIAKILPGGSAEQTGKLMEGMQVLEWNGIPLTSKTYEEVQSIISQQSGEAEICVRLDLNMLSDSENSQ
# T10: MPP6, Q9NZW5
# T10 sequence (Q9NZW5 125-219, limits assumed, looked up): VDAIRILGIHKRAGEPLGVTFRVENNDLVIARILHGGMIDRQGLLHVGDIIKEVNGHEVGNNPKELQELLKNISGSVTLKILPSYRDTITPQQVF
# T11: PDZRN3_1, Q9UPQ7
# T11 sequence (Q9UPQ7 244-349, limits assumed, looked up): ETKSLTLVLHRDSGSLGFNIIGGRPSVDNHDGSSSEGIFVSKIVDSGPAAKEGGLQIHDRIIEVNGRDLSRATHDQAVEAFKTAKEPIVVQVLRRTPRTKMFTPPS
# T12: SNTG1, Q9NSN8
# T12 sequence (Q9NSN8 52-150, limits assumed, looked up): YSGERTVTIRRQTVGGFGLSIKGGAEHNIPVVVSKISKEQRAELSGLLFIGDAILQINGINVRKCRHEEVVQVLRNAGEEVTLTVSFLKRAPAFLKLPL
# B1: TECPR2, O15040 (peptide)
# chain: EDLEDEWEVI
# Biological target: SCRIB_3, Q14160
# Experiment: holdup assay
# Set-up: key: below the threshold = too weak to quantify, mostly under pKd 3.1 to 4
# Conditions: plain residues with an end cap or a label only (N-terminal biotin on a linker: ado-ado)
# SCRIB_3, Q14160, sequence (Q14160 999-1103): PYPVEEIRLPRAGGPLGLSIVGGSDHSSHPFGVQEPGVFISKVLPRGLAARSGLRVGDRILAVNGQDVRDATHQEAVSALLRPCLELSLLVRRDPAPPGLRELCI
row,Binder,pKd
1,B1,3.84

# Biological target: T1, DVL3, Q92997
# Experiment: holdup assay
# Set-up: key: below the threshold = too weak to quantify, mostly under pKd 3.1 to 4
# Conditions: plain residues with an end cap or a label only (N-terminal biotin on a linker: ado-ado)
row,Binder,pKd
1,B1,below the threshold

# Biological target: T2, DLG3_1, Q92796
# Experiment: holdup assay
# Set-up: key: below the threshold = too weak to quantify, mostly under pKd 3.1 to 4
# Conditions: plain residues with an end cap or a label only (N-terminal biotin on a linker: ado-ado)
row,Binder,pKd
1,B1,below the threshold

# Biological target: FRMPD2_2, Q68DX3
# Experiment: holdup assay
# Set-up: key: below the threshold = too weak to quantify, mostly under pKd 3.1 to 4
# Conditions: plain residues with an end cap or a label only (N-terminal biotin on a linker: ado-ado)
# FRMPD2_2, Q68DX3, sequence (Q68DX3 944-1038): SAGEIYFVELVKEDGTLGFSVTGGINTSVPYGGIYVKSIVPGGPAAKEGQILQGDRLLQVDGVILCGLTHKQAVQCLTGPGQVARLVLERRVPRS
row,Binder,pKd
1,B1,below the threshold

# Biological target: T3, DLG3_2, Q92796
# Experiment: holdup assay
# Set-up: key: below the threshold = too weak to quantify, mostly under pKd 3.1 to 4
# Conditions: plain residues with an end cap or a label only (N-terminal biotin on a linker: ado-ado)
row,Binder,pKd
1,B1,4.09

# Biological target: PDLIM1, O00151
# Experiment: holdup assay
# Set-up: key: below the threshold = too weak to quantify, mostly under pKd 3.1 to 4
# Conditions: plain residues with an end cap or a label only (N-terminal biotin on a linker: ado-ado)
# PDLIM1, O00151, sequence (O00151 1-87): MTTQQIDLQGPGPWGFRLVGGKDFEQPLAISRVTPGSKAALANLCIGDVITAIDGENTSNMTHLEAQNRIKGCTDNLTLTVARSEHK
row,Binder,pKd
1,B1,below the threshold

# Biological target: LNX1_3, Q8TBB1
# Experiment: holdup assay
# Set-up: key: below the threshold = too weak to quantify, mostly under pKd 3.1 to 4
# Conditions: plain residues with an end cap or a label only (N-terminal biotin on a linker: ado-ado)
# LNX1_3, Q8TBB1, sequence (Q8TBB1 500-596): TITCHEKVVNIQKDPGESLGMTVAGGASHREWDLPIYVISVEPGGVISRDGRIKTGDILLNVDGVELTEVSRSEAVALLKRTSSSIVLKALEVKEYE
row,Binder,pKd
1,B1,below the threshold

# Biological target: T4, GRIP1_2, Q9Y3R0
# Experiment: holdup assay
# Set-up: key: below the threshold = too weak to quantify, mostly under pKd 3.1 to 4
# Conditions: plain residues with an end cap or a label only (N-terminal biotin on a linker: ado-ado)
row,Binder,pKd
1,B1,below the threshold

# Biological target: T5, LIN7B, Q9HAP6
# Experiment: holdup assay
# Set-up: key: below the threshold = too weak to quantify, mostly under pKd 3.1 to 4
# Conditions: plain residues with an end cap or a label only (N-terminal biotin on a linker: ado-ado)
row,Binder,pKd
1,B1,3.74

# Biological target: T6, FRMPD1, Q5SYB0
# Experiment: holdup assay
# Set-up: key: below the threshold = too weak to quantify, mostly under pKd 3.1 to 4
# Conditions: plain residues with an end cap or a label only (N-terminal biotin on a linker: ado-ado)
row,Binder,pKd
1,B1,below the threshold

# Biological target: HTRA1, Q92743
# Experiment: holdup assay
# Set-up: key: below the threshold = too weak to quantify, mostly under pKd 3.1 to 4
# Conditions: plain residues with an end cap or a label only (N-terminal biotin on a linker: ado-ado)
# HTRA1, Q92743, sequence (Q92743 360-477): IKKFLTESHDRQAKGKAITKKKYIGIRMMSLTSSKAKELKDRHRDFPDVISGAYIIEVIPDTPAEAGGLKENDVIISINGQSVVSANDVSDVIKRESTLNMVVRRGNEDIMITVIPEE
row,Binder,pKd
1,B1,5.29

# Biological target: T7, APBA2_1, Q99767
# Experiment: holdup assay
# Set-up: key: below the threshold = too weak to quantify, mostly under pKd 3.1 to 4
# Conditions: plain residues with an end cap or a label only (N-terminal biotin on a linker: ado-ado)
row,Binder,pKd
1,B1,below the threshold

# Biological target: ARHGEF12, Q9NZN5-2
# Experiment: holdup assay
# Set-up: key: below the threshold = too weak to quantify, mostly under pKd 3.1 to 4
# Conditions: plain residues with an end cap or a label only (N-terminal biotin on a linker: ado-ado)
# ARHGEF12, Q9NZN5-2, sequence (Q9NZN5 other isoform, or with tags, fused parts or gaps): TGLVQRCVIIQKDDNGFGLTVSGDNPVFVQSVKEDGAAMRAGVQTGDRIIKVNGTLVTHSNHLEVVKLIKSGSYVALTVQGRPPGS
row,Binder,pKd
1,B1,below the threshold

# Biological target: NHERF4_1, Q86UT5-2
# Experiment: holdup assay
# Set-up: key: below the threshold = too weak to quantify, mostly under pKd 3.1 to 4
# Conditions: plain residues with an end cap or a label only (N-terminal biotin on a linker: ado-ado)
# NHERF4_1, Q86UT5-2, sequence (Q86UT5 other isoform, or with tags, fused parts or gaps): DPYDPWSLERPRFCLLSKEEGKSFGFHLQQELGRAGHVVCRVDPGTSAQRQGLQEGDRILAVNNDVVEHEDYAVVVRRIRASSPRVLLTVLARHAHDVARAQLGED
row,Binder,pKd
1,B1,below the threshold

# Biological target: GORASP2, Q9H8Y8
# Experiment: holdup assay
# Set-up: key: below the threshold = too weak to quantify, mostly under pKd 3.1 to 4
# Conditions: plain residues with an end cap or a label only (N-terminal biotin on a linker: ado-ado)
row,Binder,pKd
1,B1,4.44

# Biological target: Inadl_8, Q8NI35
# Experiment: holdup assay
# Set-up: key: below the threshold = too weak to quantify, mostly under pKd 3.1 to 4
# Conditions: plain residues with an end cap or a label only (N-terminal biotin on a linker: ado-ado)
# Inadl_8, Q8NI35, sequence (Q8NI35 1425-1530): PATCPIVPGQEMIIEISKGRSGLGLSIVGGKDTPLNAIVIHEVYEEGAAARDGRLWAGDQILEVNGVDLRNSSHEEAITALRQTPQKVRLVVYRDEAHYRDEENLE
row,Binder,pKd
1,B1,below the threshold

# Biological target: T8, LIN7A, O14910
# Experiment: holdup assay
# Set-up: key: below the threshold = too weak to quantify, mostly under pKd 3.1 to 4
# Conditions: plain residues with an end cap or a label only (N-terminal biotin on a linker: ado-ado)
row,Binder,pKd
1,B1,below the threshold

# Biological target: T9, PCLO, Q9Y6V0
# Experiment: holdup assay
# Set-up: key: below the threshold = too weak to quantify, mostly under pKd 3.1 to 4
# Conditions: plain residues with an end cap or a label only (N-terminal biotin on a linker: ado-ado)
row,Binder,pKd
1,B1,below the threshold

# Biological target: IL16_4, Q14005
# Experiment: holdup assay
# Set-up: key: below the threshold = too weak to quantify, mostly under pKd 3.1 to 4
# Conditions: plain residues with an end cap or a label only (N-terminal biotin on a linker: ado-ado)
# IL16_4, Q14005, sequence (Q14005 1229-1329): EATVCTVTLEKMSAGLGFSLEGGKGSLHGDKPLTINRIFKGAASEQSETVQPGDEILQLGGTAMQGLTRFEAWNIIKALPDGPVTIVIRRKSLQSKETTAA
row,Binder,pKd
1,B1,below the threshold

# Biological target: T10, MPP6, Q9NZW5
# Experiment: holdup assay
# Set-up: key: below the threshold = too weak to quantify, mostly under pKd 3.1 to 4
# Conditions: plain residues with an end cap or a label only (N-terminal biotin on a linker: ado-ado)
row,Binder,pKd
1,B1,below the threshold

# Biological target: LAP2, Q96RT1
# Experiment: holdup assay
# Set-up: key: below the threshold = too weak to quantify, mostly under pKd 3.1 to 4
# Conditions: plain residues with an end cap or a label only (N-terminal biotin on a linker: ado-ado)
# LAP2, Q96RT1, sequence (Q96RT1 other isoform, or with tags, fused parts or gaps): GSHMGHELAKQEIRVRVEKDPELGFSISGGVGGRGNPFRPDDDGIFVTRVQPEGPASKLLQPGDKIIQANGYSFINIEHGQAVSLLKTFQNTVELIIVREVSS
row,Binder,pKd
1,B1,below the threshold

# Biological target: TJP1_3, Q07157
# Experiment: holdup assay
# Set-up: key: below the threshold = too weak to quantify, mostly under pKd 3.1 to 4
# Conditions: plain residues with an end cap or a label only (N-terminal biotin on a linker: ado-ado)
# TJP1_3, Q07157, sequence (Q07157 416-512): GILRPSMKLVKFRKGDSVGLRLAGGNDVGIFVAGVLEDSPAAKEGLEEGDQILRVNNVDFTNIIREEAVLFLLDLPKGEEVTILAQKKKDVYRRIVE
row,Binder,pKd
1,B1,below the threshold

# Biological target: T11, PDZRN3_1, Q9UPQ7
# Experiment: holdup assay
# Set-up: key: below the threshold = too weak to quantify, mostly under pKd 3.1 to 4
# Conditions: plain residues with an end cap or a label only (N-terminal biotin on a linker: ado-ado)
row,Binder,pKd
1,B1,below the threshold

# Biological target: T12, SNTG1, Q9NSN8
# Experiment: holdup assay
# Set-up: key: below the threshold = too weak to quantify, mostly under pKd 3.1 to 4
# Conditions: plain residues with an end cap or a label only (N-terminal biotin on a linker: ado-ado)
row,Binder,pKd
1,B1,below the threshold

# Biological target: HTRA2, O43464
# Experiment: holdup assay
# Set-up: key: below the threshold = too weak to quantify, mostly under pKd 3.1 to 4
# Conditions: plain residues with an end cap or a label only (N-terminal biotin on a linker: ado-ado)
# HTRA2, O43464, sequence (O43464 355-458): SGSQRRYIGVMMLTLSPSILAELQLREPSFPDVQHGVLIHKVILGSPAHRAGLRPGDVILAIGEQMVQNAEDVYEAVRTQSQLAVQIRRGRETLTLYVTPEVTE
row,Binder,pKd
1,B1,below the threshold

# Biological target: GRID2IP_1, A4D2P6
# Experiment: holdup assay
# Set-up: key: below the threshold = too weak to quantify, mostly under pKd 3.1 to 4
# Conditions: plain residues with an end cap or a label only (N-terminal biotin on a linker: ado-ado)
# GRID2IP_1, A4D2P6, sequence (A4D2P6 1-87): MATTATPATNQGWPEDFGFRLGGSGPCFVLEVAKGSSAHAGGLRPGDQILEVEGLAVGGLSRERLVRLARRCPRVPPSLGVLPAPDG
row,Binder,pKd
1,B1,below the threshold
